Assay results from publication PMC9482650, “Quantitative fragmentomics allow affinity mapping of interactomes” (Nature Communications, 2022).
Values belong to the binder of their own block, whether it stands above or below them.

Key:
Assay in all cases: holdup assay
Set-up in all cases: key: below the threshold = too weak to quantify, mostly under pKd 3.1 to 4
TJP3_3, O95049 = biological target: T1, TJP3_3, O95049
T1 sequence (O95049 375-456, limits assumed, looked up): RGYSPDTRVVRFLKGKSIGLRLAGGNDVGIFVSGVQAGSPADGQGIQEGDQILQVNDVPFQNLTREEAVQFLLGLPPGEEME

SNX27, Q96L92 = biological target: SNX27, Q96L92
PTPN13_4, Q12923 = biological target: T2, PTPN13_4, Q12923
T2 sequence (Q12923 1783-1878, limits assumed, looked up): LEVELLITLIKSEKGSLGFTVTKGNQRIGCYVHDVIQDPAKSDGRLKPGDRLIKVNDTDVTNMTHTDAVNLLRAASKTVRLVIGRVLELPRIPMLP

TJP3_2, O95049 = biological target: T3, TJP3_2, O95049
T3 sequence (O95049 190-282, limits assumed, looked up): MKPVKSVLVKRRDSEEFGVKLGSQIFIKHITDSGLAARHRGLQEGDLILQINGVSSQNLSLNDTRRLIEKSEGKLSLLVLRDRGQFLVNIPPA

Inadl_7, Q8NI35 = biological target: Inadl_7, Q8NI35
PDZD2_1, O15018 = biological target: T4, PDZD2_1, O15018
T4 sequence (O15018 80-192, limits assumed, looked up): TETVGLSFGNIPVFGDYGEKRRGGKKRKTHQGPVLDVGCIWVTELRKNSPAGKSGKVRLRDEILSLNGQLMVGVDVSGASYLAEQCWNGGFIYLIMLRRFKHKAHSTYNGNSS

PDZD9, Q8IXQ8 = biological target: PDZD9, Q8IXQ8
RIMS2, Q9UQ26 = biological target: RIMS2, Q9UQ26
RGS12, O14924 = biological target: T5, RGS12, O14924
T5 sequence (O14924 17-108, limits assumed, looked up): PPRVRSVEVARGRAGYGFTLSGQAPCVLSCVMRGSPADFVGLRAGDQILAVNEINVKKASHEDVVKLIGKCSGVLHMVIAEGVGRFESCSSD

MPP5, Q8N3R9 = biological target: T6, MPP5, Q8N3R9
T6 sequence (Q8N3R9 251-346, limits assumed, looked up): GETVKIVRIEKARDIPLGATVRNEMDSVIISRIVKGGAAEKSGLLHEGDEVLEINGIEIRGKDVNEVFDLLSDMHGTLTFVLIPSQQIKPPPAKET

TJP3_1, O95049 = biological target: T7, TJP3_1, O95049
T7 sequence (O95049 6-103, limits assumed, looked up): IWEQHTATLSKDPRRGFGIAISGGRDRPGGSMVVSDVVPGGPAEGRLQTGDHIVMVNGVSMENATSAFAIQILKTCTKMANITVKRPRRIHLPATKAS

GIPC1, O14908 = biological target: T8, GIPC1, O14908
T8 sequence (O14908 128-223, limits assumed, looked up): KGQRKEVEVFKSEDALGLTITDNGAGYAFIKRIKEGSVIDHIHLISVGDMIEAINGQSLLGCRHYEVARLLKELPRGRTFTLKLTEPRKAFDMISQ

MPDZ_13, O75970 = biological target: T9, MPDZ_13, O75970
T9 sequence (O75970 1982-2070, limits assumed, looked up): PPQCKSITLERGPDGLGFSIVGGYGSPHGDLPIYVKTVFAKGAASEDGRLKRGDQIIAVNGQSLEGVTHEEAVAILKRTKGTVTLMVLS

USH1C_1, Q9Y6N9 = biological target: T10, USH1C_1, Q9Y6N9
T10 sequence (Q9Y6N9 82-179, limits assumed, looked up): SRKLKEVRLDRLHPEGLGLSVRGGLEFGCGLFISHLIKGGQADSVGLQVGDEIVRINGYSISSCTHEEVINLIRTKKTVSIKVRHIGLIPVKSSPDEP

MAST3, O60307 = biological target: MAST3, O60307
NHERF3_2, Q5T2W1 = biological target: T11, NHERF3_2, Q5T2W1
T11 sequence (Q5T2W1 129-225, limits assumed, looked up): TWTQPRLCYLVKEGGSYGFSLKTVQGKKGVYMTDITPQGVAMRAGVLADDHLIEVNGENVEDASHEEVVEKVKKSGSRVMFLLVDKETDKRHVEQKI

DLG2_1, Q15700 = biological target: DLG2_1, Q15700
SHANK2, Q9UPX8 = biological target: T12, SHANK2, Q9UPX8
T12 sequence (Q9UPX8 621-730, limits assumed, looked up): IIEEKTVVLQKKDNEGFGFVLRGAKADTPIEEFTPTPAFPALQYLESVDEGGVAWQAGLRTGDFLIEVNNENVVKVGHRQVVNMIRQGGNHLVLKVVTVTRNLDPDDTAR

APBA3_2, O96018 = biological target: T13, APBA3_2, O96018
T13 sequence (O96018 480-570, limits assumed, looked up): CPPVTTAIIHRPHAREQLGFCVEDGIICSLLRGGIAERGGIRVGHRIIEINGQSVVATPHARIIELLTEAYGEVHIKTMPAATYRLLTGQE

AHNAK2, Q8IVF2 = biological target: AHNAK2, Q8IVF2
MPDZ_3, O75970 = biological target: T14, MPDZ_3, O75970
T14 sequence (O75970 372-473, limits assumed, looked up): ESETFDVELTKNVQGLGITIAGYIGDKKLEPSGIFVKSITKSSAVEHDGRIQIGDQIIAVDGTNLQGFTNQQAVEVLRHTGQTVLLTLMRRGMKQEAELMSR

MAGI3_5, Q5TCQ9 = biological target: MAGI3_5, Q5TCQ9
PARD6B, Q9BYG5 = biological target: T15, PARD6B, Q9BYG5
T15 sequence (Q9BYG5 152-260, limits assumed, looked up): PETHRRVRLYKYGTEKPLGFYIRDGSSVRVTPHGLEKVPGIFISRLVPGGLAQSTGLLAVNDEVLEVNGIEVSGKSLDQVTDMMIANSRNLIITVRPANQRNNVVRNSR

[1] = plain residues with an end cap or a label only (N-terminal biotin on a linker: ado-ado)
[2] = modified: phospho on S at position -3 from the C-terminal residue
[3] = modified: acetyl on K at position -1 from the C-terminal residue

Sequence of Inadl_7, Q8NI35 (Q8NI35 1219-1332): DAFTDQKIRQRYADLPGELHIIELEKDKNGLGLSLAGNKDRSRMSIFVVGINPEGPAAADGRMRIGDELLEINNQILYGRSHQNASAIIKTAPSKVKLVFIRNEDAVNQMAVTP
Sequence of MAGI3_5, Q5TCQ9 (Q5TCQ9 847-941): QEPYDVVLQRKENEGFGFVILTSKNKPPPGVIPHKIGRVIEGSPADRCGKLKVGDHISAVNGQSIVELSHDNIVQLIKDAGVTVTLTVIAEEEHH
Sequence of PDZD9, Q8IXQ8 (Q8IXQ8 23-120): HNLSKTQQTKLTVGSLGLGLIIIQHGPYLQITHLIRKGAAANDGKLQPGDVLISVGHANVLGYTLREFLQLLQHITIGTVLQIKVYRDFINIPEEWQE
Sequence of MAST3, O60307 (O60307 945-1048): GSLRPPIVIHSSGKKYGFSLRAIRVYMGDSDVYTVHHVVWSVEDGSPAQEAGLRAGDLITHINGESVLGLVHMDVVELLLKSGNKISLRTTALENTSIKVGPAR
Sequence of RIMS2, Q9UQ26 (Q9UQ26 637-758): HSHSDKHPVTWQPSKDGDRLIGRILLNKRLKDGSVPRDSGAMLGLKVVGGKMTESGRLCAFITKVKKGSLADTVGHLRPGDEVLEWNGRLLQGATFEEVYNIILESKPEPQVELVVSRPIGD
Sequence of AHNAK2, Q8IVF2 (Q8IVF2 108-193): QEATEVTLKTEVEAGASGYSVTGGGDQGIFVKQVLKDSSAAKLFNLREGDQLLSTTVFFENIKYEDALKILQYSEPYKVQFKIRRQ

Binder: NPETRDETQL [KCNT1, Q5JUK3]
- pKd (TJP3_3, O95049; [1]): below the threshold
- pKd (SNX27, Q96L92; [1]): 5.22

Binder: SSGSTSSSRI [ADGRG1, Q9Y653]
- pKd (TJP3_3, O95049; [1]): below the threshold
- pKd (SNX27, Q96L92; [1]): 3.56

Binder: ALPLPQSSTC [IGF1R, P08069]
- pKd (TJP3_3, O95049; [1]): below the threshold
- pKd (SNX27, Q96L92; [1]): below the threshold

Binder: REKKFFCTIL [GNG4, P50150]
- pKd (TJP3_3, O95049; [1]): below the threshold
- pKd (SNX27, Q96L92; [1]): 5.13

Binder: PKLMGVETVV [DUSP10, Q9Y6W6]
- pKd (TJP3_3, O95049; [1]): below the threshold
- pKd (SNX27, Q96L92; [1]): 5.23

Binder: QLAEIAESGL [ITK, Q08881]
- pKd (TJP3_3, O95049; [1]): below the threshold
- pKd (SNX27, Q96L92; [1]): 5.4

Binder: VGIERETDVL [EZH1, Q92800]
- pKd (TJP3_3, O95049; [1]): below the threshold
- pKd (SNX27, Q96L92; [1]): below the threshold

Binder: IPGKEFDTPL [PLCB1, Q9NQ66]
- pKd (TJP3_3, O95049; [1]): below the threshold
- pKd (SNX27, Q96L92; [1]): 5.17

Binder: EWTDERQSKV [GAB3, Q8WWW8]
- pKd (TJP3_3, O95049; [1]): below the threshold
- pKd (SNX27, Q96L92; [1]): 4.72

The remaining lines, values ahead:

- pKd (TJP3_3, O95049; [1]): below the threshold
- pKd (SNX27, Q96L92; [1]): 5.4
Binder: TGLWKSETTV [ADGRA2, Q96PE1]

- pKd (TJP3_3, O95049; [1]): below the threshold
- pKd (SNX27, Q96L92; [1]): below the threshold
Binder: EGGKKRESEA [APPL1, Q9UKG1]

- pKd (PTPN13_4, Q12923; [2]): below the threshold
- pKd (TJP3_2, O95049; [2]): below the threshold
- pKd (Inadl_7, Q8NI35; [2]): below the threshold
- pKd (PDZD2_1, O15018; [2]): below the threshold
- pKd (TJP3_3, O95049; [2]): below the threshold
- pKd (PDZD9, Q8IXQ8; [2]): below the threshold
- pKd (RIMS2, Q9UQ26; [2]): below the threshold
- pKd (RGS12, O14924; [2]): below the threshold
- pKd (MPP5, Q8N3R9; [2]): below the threshold
- pKd (TJP3_1, O95049; [2]): below the threshold
- pKd (GIPC1, O14908; [2]): below the threshold
- pKd (MPDZ_13, O75970; [2]): 3.72
- pKd (USH1C_1, Q9Y6N9; [2]): below the threshold
- pKd (MAST3, O60307; [2]): below the threshold
- pKd (NHERF3_2, Q5T2W1; [2]): below the threshold
- pKd (DLG2_1, Q15700; [2]): 3.69
- pKd (SHANK2, Q9UPX8; [2]): below the threshold
- pKd (APBA3_2, O96018; [2]): below the threshold
- pKd (AHNAK2, Q8IVF2; [2]): 3.54
- pKd (MPDZ_3, O75970; [2]): below the threshold
- pKd (SNX27, Q96L92; [2]): 4.1
- pKd (MAGI3_5, Q5TCQ9; [2]): below the threshold
- pKd (PARD6B, Q9BYG5; [2]): below the threshold
Binder: RRVRKLPSTTL [RPS6KA1_-3P, Q15418]

- pKd (TJP3_3, O95049; [1]): below the threshold
- pKd (SNX27, Q96L92; [1]): below the threshold
Binder: FTLPAESSEI [PLEKHG7, Q6ZR37]

- pKd (TJP3_3, O95049; [1]): below the threshold
- pKd (SNX27, Q96L92; [1]): 5.45
Binder: PDSNPEESSV [SEMA4C, Q9C0C4]

- pKd (TJP3_3, O95049; [1]): 3.65
- pKd (SNX27, Q96L92; [1]): 3.62
Binder: ASGLDKRDYV [CLDN9, O95484]

- pKd (TJP3_3, O95049; [1]): below the threshold
- pKd (SNX27, Q96L92; [1]): 3.76
Binder: HLRQQGSVEV [EPHB6, O15197]

- pKd (TJP3_3, O95049; [1]): below the threshold
- pKd (SNX27, Q96L92; [1]): 5.48
Binder: NLQEHSTTSV [RSBN1, Q5VWQ0]

- pKd (PTPN13_4, Q12923; [3]): 4.96
- pKd (TJP3_2, O95049; [3]): below the threshold
- pKd (Inadl_7, Q8NI35; [3]): 4.2
- pKd (PDZD2_1, O15018; [3]): below the threshold
- pKd (TJP3_3, O95049; [3]): below the threshold
- pKd (PDZD9, Q8IXQ8; [3]): below the threshold
- pKd (RIMS2, Q9UQ26; [3]): below the threshold
- pKd (RGS12, O14924; [3]): below the threshold
- pKd (MPP5, Q8N3R9; [3]): below the threshold
- pKd (TJP3_1, O95049; [3]): below the threshold
- pKd (GIPC1, O14908; [3]): below the threshold
- pKd (MPDZ_13, O75970; [3]): 4.29
- pKd (USH1C_1, Q9Y6N9; [3]): below the threshold
- pKd (MAST3, O60307; [3]): 4.06
- pKd (NHERF3_2, Q5T2W1; [3]): 3.61
- pKd (DLG2_1, Q15700; [3]): 3.98
- pKd (SHANK2, Q9UPX8; [3]): 3.97
- pKd (APBA3_2, O96018; [3]): below the threshold
- pKd (AHNAK2, Q8IVF2; [3]): below the threshold
- pKd (MPDZ_3, O75970; [3]): below the threshold
- pKd (SNX27, Q96L92; [3]): 5.32
- pKd (MAGI3_5, Q5TCQ9; [3]): 3.97
- pKd (PARD6B, Q9BYG5; [3]): below the threshold
Binder: DEDQHTQITKV [PTEN_Ac, P60484]

- pKd (TJP3_3, O95049; [1]): below the threshold
- pKd (SNX27, Q96L92; [1]): below the threshold
Binder: DHLGGGGESM [TNRC6A, Q8NDV7]

- pKd (TJP3_3, O95049; [1]): below the threshold
- pKd (SNX27, Q96L92; [1]): below the threshold
Binder: PEEGKKQSQC [GAGE12J, A6NER3]

- pKd (TJP3_3, O95049; [1]): below the threshold
- pKd (SNX27, Q96L92; [1]): 4.1
Binder: GSSSKEGTSV [RRBP1, Q9P2E9]

- pKd (TJP3_3, O95049; [1]): below the threshold
- pKd (SNX27, Q96L92; [1]): below the threshold
Binder: ADRDHASDQL [CTBP1, Q13363]
